From patent publication US20060148030A1, “Nuclear receptor err y 3” (FUJISAWA PHARMACEUTICAL CO., LTD, priority 2002, published 2006)

Target: T1, ERα (Homo sapiens, UniProt P03372)
T1 construct: expressed in transfected cells; host or cells: CV-1 (African green monkey kidney)
T1 sequence (P03372 1-595): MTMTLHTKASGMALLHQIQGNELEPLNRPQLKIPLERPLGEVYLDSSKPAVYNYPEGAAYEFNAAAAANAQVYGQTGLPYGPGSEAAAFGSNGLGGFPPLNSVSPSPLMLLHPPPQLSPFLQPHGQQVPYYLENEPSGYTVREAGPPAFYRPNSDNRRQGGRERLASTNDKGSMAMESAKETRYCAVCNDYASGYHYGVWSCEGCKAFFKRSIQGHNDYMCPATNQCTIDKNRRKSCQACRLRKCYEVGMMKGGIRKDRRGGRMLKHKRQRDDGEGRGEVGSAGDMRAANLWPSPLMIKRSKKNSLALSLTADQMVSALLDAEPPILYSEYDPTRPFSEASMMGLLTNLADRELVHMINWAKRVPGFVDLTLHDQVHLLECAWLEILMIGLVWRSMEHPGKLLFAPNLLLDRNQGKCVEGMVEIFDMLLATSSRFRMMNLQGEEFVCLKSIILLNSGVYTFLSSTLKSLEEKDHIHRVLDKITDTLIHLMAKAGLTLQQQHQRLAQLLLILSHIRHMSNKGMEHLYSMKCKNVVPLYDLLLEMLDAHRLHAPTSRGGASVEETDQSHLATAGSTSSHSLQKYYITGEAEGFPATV
Assay: Reporter gene assay, ERRγ3 or ERRγ2 coexisted with ERα in CV-1 cells
Assay type: cell-based
Conditions: ERRγ2 with ERα, CV-1 cells; FIGS. 19-20
Description: The reporter gene assay was performed using CV-1 cells (African green monkey kidney-derived cell line) as hosts. Host cells were transfected with luciferase reporter plasmids and expression plasmids for ERRγ3, ERRγ2, or both. They were then exposed to 4-hydroxytamoxifen at different concentrations (0, 10^−10 to −10^−5 M) for 24 hours, whereupon luciferase activity within the cells was measured.
Transfection was performed as follows: CV-1 cells were suspended at 2×10^5 cells/2.5 ml in DMEM medium supplemented with 10% fetal bovine serum, 2000 U/l of penicillin G, and 100 mg/l streptomycin. These cells were seeded to a 6-well plate at 2.5 ml/well, and cultured for 18 to 24 hours in a CO2 incubator at 37° C. in the presence of 5% CO2. 1 μg of each of the transcription factor expression plasmid, the luciferase reporter plasmid, and another luciferase reporter plasmid for normalizing the measured value (pRL-TK), were dissolved in Opti-MEM (Gibco BRL) to total of 150 μl. 7 μl of the cell transfection reagent LipofectAMINE 2000 (Gibco BRL) was diluted in 143 μl of Opti-MEM, and this was added to the mixture drop by drop while stirring. The mixture was incubated for 20 minutes.
The LipofectAMINE-DNA mixture was diluted in 1.5 ml of Opti-MEM, and added to cells that had been twice washed with 1 ml of PBS(−). The cells were cultured for four hours. The transfection reagent was removed from the culture, and 200 μl of trypsin/EDTA was added to the cells, which were then incubated at 37° C. for five minutes. […] of DMEM was added to suspend the cells, which were transferred to a centrifuge tube, and centrifuged for three minutes at 1000 rpm. After centrifugation, the cells were resuspended in DMEM to a concentration of 1.6×10^4 cells/100 μl, and 100 μl samples were seeded to a 96-well plate. When evaluating agents, a two-fold concentrated solution was made by pre-diluting a 1000 times concentrated agent DMSO solution with culture medium. 50 μl of the solution was mixed with 50 μl of a cell suspension at 1.6×10^4 cells/50 μl, and the culture was incubated in a CO2 incubator at 37° C. and 5% CO2 for 24 hours.
Luciferase activity was measured using the Dual-Luciferase™ Reporter Assay System (Promega). The culture supernatant was removed from each well of the 96-well plate and washed once with 100 μl of PBS(−). 20 μl of ×1 PLB (Passive Lysis Buffer) was added, and the mixture was incubated at room temperature for 15 minutes, and then stored at −20° C. in the freezer until use. […] The protocol for measurement was as follows: 50 μl of Luciferase Assay Reagent II was added to each well, stirred for 0.3 seconds and measured for one second. […] of Stop&Glo™ Reagent was then added, stirred for 0.3 seconds, and measured for one second. […] Average values and standard errors were calculated from triplicate samples.
To confirm whether or not ERRγ3 can regulate the transcription-controlling function of nuclear receptors other than ERRγ2, ERRγ3's function of regulating the transcription-controlling activity of nuclear receptors related to ERRγ (ERα, ERβ, and TR) was evaluated using a reporter gene assay. […] In addition to 4-hydroxytamoxifen, the cells were also contacted with 10^−5 M of (R)-estradiol in experiments related to ERα and ERβ, and 10^−5 M of thyroxine in the experiment related to TR.
The transfected cells were contacted with varying concentrations of 4-hydroxytamoxifen in the absence of […] or presence of 10^−7 M of β-estradiol.

B1: ERRγ2: known human ERRγ isoform, the long form (SEQ ID NO: 6) (protein, listed as Homo sapiens)
chain: MDSVELCLPESFSLHYEEELLCRMSNKDRHIDSSCSSFIKTEPSSPASLTDSVNHHSPGGSSDASGSYSSTMNGHQNGLDSPPLYPSAPILGGSGPVRKLYDDCSSTIVEDPQTKCEYMLNSMPKRLCLVCGDIASGYHYGVASCEACKAFFKRTIQGNIEYSCPATNECEITKRRRKSCQACRFMKCLKVGMLKEGVRLDRVRGGRQKYKRRIDAENSPYLNPQLVQPAKKPYNKIVSHLLVAEPEKIYAMPDPTVPDSDIKALTTLCDLADRELVVIIGWAKHIPGFSTLSLADQMSLLQSAWMEILILGVVYRSLSFEDELVYADDYIMDEDQSKLAGLLDLNNAILQLVKKYKSMKLEKEEFVTLKAIALANSDSMHIEDVEAVQKLQDVLHEALQDYEAGQHMEDPRRAGKMLMTLPLLRQTSTKAVQHFYNIKLEGKVPMHKLFLEMLEAKV
- enhancement of transcription when ERRγ2 coexisted with ERα: showed the function of enhancing transcription
